Measurements from the domain aggregation screens of Martell et al. (2025).

Assay: soluble fraction after stress (log2 fold change); higher = more stays soluble; pooled small domains, quantitative proteomics
Conditions: stress: pH 4
Outline: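 High-throughput quantitative proteomics was run on pooled custom libraries of small protein domains following pH 4 stress. Fold changes are on a log2 scale; higher values mean more of a domain remained soluble. The fold change in soluble amount is taken as a measure of aggregation propensity.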

Sequence	soluble fraction (log2)
HMGNLASRVAEQLLDKMRGDSLVPGTRLPSEIAMAKHFGVSRTVMREAIARLKADGLLETRRGSGAFVLAT	-0.0652
HMNKVAQFYRELVSTLSERLRNGERDIDALVEQARVRISQSGELTQSEIENVIRAVRRDLEEFALSYEE	-1.73
HMLDIPEVGQAVQVRGRLGTVFSVAPYDGREGRLHLVTVDYLDDARPPENDEILWEIESGARILG	-0.763
HMDLRVKRTNKMIMEAFIHLVEQKGYDNITVQEIADEAMINRATFYAHFKDKQDLYDHIFKQAI	-1.33
HMKVFTEDEMLEKIKEYLSTNSYINRRVMETQFGLRQNIALKWLKHFTEIGVLRKEGERNSPIYFLNN	0.154
HMSVNEKVRLFRELNQWSQEEMAERMNMSVAGYAKIERGETNISLHKLKQIASVLQIDLLDLVS	-0.867
HMEELLVAVKADGSIWADGRPITPDGLASFIDSKPADAVLNLAVDKKAPFAAFVKVVDVAKEKKSGRFVIR	-0.141
HMSDYVLLYSGLNTSDTTFLAYSFQEKGIRYKMPNPDEIEVRVQDVDQARRIAAGAQLGGQVS	-0.297
HMENYIEQLTAKNSEYIHVVTRELVKIGKSDEEIKAILSDILPQIVAAQDQRVLAKDILGTPSEFTAKYAP	0.0161
HMKPVTNHTVKFYVDDVLWKTVTVKHGGNVRLADLPMSDGKTFVGWSESVVNVTKDLTVFALFS	-0.478
HMNTKLKPLYLLDIFREMTDERHRMTVPELLEELQRRGITAERKGIYRDIDALIQYGADIKHTGTGYYLAR	0.18
HMNDIDKFVAALVDQDTMAGTNRAFDENDIQTMKNMSSIEDVKQYAVANGLSSGKVNNALISAGL	-0.195
HMGKNIQAIRYKNNMTQDQVVAKLNLMGISITKSTYAKLETNRMNIKASELVALAKLFHTDINAFFSG	-0.0779
HMTSFDVMLKSAGANKLAVVKLVKELTGLGLKEAKDIVDAAPSKVKEGVSKEEAEELQKQLTGAGAEVEL	0.309
HMGELTNALATLSERERDVARLVAQGLDNRQIAAQLFLSEGTVRNRISDILDKLALTNRTQLAIAWLHAE	-0.615
HMRTITIDDSIAGKRLDEALTLLGAESSRTKVKLLFSSPNGVLVNGEKEKPHYRVEAGDVIQFGELPKK	-0.104
HMSEYLDIHMAMEKLNRKEQLFVHLRFYEGLTQSEIAQRLFTSQVQISRLEKSVLEKMRQILSK	-0.91
HMRKRLLQLVHIGKSQLGMDDETYRSLLSQQFYQNSAKNISYSELVKLVKILQQKGAKIRLPH	0.262
HMNNLTEEAINHLVLEVKNVLLTDALFLGKATDSQLMLRIKETIDQRNGQYNIGMNDRERIARRVFARLR	≥ 0.43

Sequence	soluble fraction (log2)
HMGYDSYDADTIPKLKIGSIVEHPKFGEGSIISKAGAEVTIAFKIKGVKKINLEYTSIKVLK	0.117
HMDKSFLQSLHLIALGIVKNQMDPWELVNGWVEYYLKNKDKYIDHPNLKAVAVLKMKGLFIDHFRKS	-2.21
HMTDFNTFSDAIIAAVGSRASGLKVVDNAVSVMVDVSGLNEDQRVEIEADVRAAAEHAGAQSVRIMLT	-0.5
HMSLAVFLQGLLEEKQLKKADVIRRTGMEPTYGYHIFDGHKKHPARSKVLLLALAMGLTVKEAQHLLYYAG	-0.544
HMQDQVTLIVQVNGKLRGQISISTDATKELIEQTALANENVQKFVDGQSIKKIIIVPGRLVNIV	0.22
HMADVSPEAQHKMVEAFAQFGVTKEHIEQRIQRRLDAIQPAQMVTLKRIFASLRDGMSTPAEWFE	-1.03
HMSLPALALRQADSLAFKQVIYHDRVVPFNTLARDFVLKLTGKPSYGGMTPEQVVGGWLLRPEVWQNEPM	0.00403
HMNVAVGNSKLVGVAGERAYFVNGVGAAARTLSLQVGDALPTGEKVRRIERDGVTMTGASGDVRLSVLP	0.138
HMQILVEGVEANQRLDLFLRARLTEFSRSRIQGLVKNGNVLVNGNIARQAYLVQVGDKIELDVPEPVA	0.112
HMSKTQYTFREVGSQFELHAPSTNHKIMVDANHPKYGWLSSQEAGRVINVYESGKMTSSQDYYGLYKQS	-0.427
HMYYHQIIGLDVVDENGNTLGKIKEILSPGANDVWVVKRKQKNDLLLPVIDDVIKDVDLAAGKVHVELLEG	-1.38
HMSPAPVSVDHLAFPTRDLEATDHFYSKVVGATLVHAESGYSPSWKSDYLLITYALPDGTRLSFFDWP	-0.133
HMTAIKAGDLVKITGTKYYGGQTIPGWVKNQNWYVQEVSGDRAVINKNESGTNAIMSPIRVSDLTPVS	-0.0468
HMKGVPGIGDYVKLSGGSTVGKVLSISGKKAEVAFGLLRTTTELSKLEKVRKPKELLQSGVSS	≥ 0.43
HMSRAARLALDALPDEWAQFAESRGLAGSAMAETWETFRDYWQAQPGQKGVKADWAATWRNWVRRETQNRG	-0.074
HMKLNKRQYAYQVIRSRILDGTYVPGQRIIIDQIAKEVNSSHIPVREAIHQLESEQLIDYEPNIGAIVKG	0.181
HMGSYVVQLGAFAIRANAEKLAREVDGSIATSGRFSLVRVGPFTSRGQAEQALAKLRARGYSDALIHSL	-0.234
HMKITFNPVSSGRLDIILAEKTGYTRSYVKQLVEKQAVTINGEAAKKSGQNVKAGDEIALDEP	0.149
HMAEDGNMTFEEYAKRWLARQVRYAPSTLESYRRMLGRVYPFIGAIPINRLRPIALENLLAELRKRT	-0.0982
